Test results reported in patent publication US20180193475A1 (Novartis, published 2018).
Changes are numbered by the printed parent chain.

T1: Mouse cKIT ECD, C-terminal 6x His (Sino Biological Inc, catalog number 50530-M08H) (mouse, UniProt P05532 25-527)
T1 construct: extracellular domain; Bought protein; not shown: C-terminal 6x His tag
T1 sequence (looked up): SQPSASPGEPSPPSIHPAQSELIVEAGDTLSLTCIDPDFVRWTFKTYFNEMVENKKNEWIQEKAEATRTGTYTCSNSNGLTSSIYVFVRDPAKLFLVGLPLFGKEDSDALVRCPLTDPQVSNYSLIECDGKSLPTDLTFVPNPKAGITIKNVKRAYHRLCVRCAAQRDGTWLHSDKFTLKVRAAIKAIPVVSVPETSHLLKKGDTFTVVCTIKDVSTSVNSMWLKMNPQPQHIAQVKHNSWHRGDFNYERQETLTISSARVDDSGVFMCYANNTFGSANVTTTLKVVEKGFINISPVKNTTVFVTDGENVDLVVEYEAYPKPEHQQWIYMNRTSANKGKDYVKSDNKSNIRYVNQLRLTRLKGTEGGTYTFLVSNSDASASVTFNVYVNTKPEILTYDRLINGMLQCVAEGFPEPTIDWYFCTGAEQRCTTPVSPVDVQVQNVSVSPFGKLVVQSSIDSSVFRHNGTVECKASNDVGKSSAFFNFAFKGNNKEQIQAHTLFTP

T2: Cynomolgus monkey cKIT D1-5 (cyno cKIT ECD, C-terminal 6x His) (cynomolgus monkey, UniProt P10721 25-520 (human entry))
T2 construct: The signal peptide is not part of the protein in the assay; The entry includes the C-terminal His tag; also called cynomolgus monkey ECD
T2 chain: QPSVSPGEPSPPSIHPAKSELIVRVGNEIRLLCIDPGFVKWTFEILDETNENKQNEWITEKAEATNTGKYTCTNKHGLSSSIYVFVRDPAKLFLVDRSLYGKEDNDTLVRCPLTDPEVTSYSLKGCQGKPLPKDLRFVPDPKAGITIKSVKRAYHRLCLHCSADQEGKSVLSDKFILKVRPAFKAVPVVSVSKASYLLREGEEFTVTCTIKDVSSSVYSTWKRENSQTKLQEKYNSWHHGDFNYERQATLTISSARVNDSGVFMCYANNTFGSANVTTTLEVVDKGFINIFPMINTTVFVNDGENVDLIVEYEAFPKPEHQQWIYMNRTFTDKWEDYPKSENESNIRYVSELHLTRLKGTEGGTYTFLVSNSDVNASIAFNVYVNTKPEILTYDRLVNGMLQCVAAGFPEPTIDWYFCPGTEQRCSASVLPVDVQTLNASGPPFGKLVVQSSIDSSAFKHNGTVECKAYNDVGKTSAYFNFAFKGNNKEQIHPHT

T3: Rat cKIT D1-5, C-terminal mFc (rat)
T3 construct: The whole entry is rat cKIT ECD residues 25-526, a linker and a mouse Fc tag; also called rat cKIT-mFc
T3 chain: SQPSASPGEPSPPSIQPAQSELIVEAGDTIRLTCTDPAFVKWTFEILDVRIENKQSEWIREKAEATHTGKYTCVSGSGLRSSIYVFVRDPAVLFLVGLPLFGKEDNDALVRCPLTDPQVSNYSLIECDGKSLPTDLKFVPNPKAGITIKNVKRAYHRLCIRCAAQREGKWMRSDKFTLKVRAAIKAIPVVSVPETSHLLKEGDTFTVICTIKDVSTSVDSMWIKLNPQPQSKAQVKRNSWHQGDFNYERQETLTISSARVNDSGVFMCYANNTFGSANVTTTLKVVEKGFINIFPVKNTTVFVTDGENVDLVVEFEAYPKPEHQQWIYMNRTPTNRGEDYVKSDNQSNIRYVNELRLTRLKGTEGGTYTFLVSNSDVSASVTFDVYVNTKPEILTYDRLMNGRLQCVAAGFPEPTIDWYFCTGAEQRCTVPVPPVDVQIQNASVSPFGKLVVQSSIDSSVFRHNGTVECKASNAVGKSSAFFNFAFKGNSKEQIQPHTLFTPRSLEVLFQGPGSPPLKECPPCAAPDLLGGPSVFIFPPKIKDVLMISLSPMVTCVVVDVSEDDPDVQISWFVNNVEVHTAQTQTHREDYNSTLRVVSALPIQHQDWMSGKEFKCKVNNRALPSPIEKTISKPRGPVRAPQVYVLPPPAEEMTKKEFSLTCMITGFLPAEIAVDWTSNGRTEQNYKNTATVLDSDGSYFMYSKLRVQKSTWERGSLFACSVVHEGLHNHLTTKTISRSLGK

B1: NEG026 (antibody, human IgG1, kappa, V domains shown)
VH: EVQLVESGGGLVQPGGSLRLSCAASGFTFSDYYMAWVRQAPGKGLEWVANINQNTGSTYYVDSVQGRFTISRDNAKNSLYLQMNSLRAEDTAVYYCARGDYYGTTYWYFDVWGQGTTVTVSS
VL: EIVMTQSPATLSLSPGERATLSCRASQDISNYLNWYQQKPGQAPRLLIYYTSRLQSGIPARFSGSGSGTDYTLTISSLEPEDFAVYYCQQGKKLWSFGGGTKVEIKR
notes: Humanized, optimized variant of 9P3; human IgG1 kappa
B2: 20376 (antibody, human IgG1, lambda, V domains shown)
VH: QVQLVQSGAEVKKPGSSVKVSCKASGGTFSSYAISWVRQAPGQGLEWMGGIIPMSGRTTYAQKFQGRVTITADESTSTAYMELSSLRSEDTAVYYCARDYGPEAPDYGQSTSYFWYYAFDPWGQGTLVTVSS
VL: DIELTQPPSVSVSPGQTASITCSGDNIPSYFVHWYQQKPGQAPVLVIYDDNDRPSGIPERFSGSNSGNTATLTISGTQAEDEADYYCSSWDQDTVVFGGGTKLTVLG
B3: 20507 (antibody, human IgG1, kappa, V domains shown)
VH: QVQLVQSGAEVKKPGSSVKVSCKASGGTFSSYAISWVRQAPGQGLEWMGTIGPFEGQPRYAQKFQGRVTITADESTSTAYMELSSLRSEDTAVYYCARGGYISDFDVWGQGTLVTVSS
VL: DIQMTQSPSSLSASVGDRVTITCRASQSISNYLAWYQQKPGKAPKLLIYDASSLQSGVPSRFSGSGSGTDFTLTISSLQPEDFATYYCQQYYYESITFGQGTKVEIKR
notes: HuCAL-derived human IgG1 kappa
B4: NEG086 (antibody, human IgG1, kappa, V domains shown)
VH: B1 VH with N54I, T55A
VL: DIQMTQSPSSLSASVGDRVTITCRASQSISSYLNWYQQKPGKAPKLLIYYTSRLQSGVPSRFSGSGSGTDFTLTISSLQPEDFATYYCQQGRRLWSFGGGTKVEIKR
notes: as for B1
B5: NEG087 (antibody, human IgG1, kappa, V domains shown)
VH: B1 VH with N50S, V61L, Q65R
VL: B4 VL
notes: as for B1
B6: NEG024 (antibody, human IgG1, kappa, V domains shown)
VH: B1 VH with N54I, T55A, V61L, Q65R
VL: B1 VL
notes: as for B1
B7: NEG085 (antibody, human IgG1, kappa, V domains shown)
VH: B1 VH with T28A, D31G, Q53Y, N54P, T55G, G56S, V61L, Q65K
VL: B4 VL
B8: NEG027 (antibody, human IgG1, kappa, V domains shown)
VH: B1 VH with N50S, V61L, Q65R
VL: B1 VL
notes: as for B1
B9: anti-cKIT antibody 9P3 (antibody, V domains shown)
VH: EVRLVESEGGLVQPRSSMKLSCTASGFTFSDYYMAWVRQVPEKGLEWVANINYDGSSTYYLDSLKSRFIISRDNAKNILYLQMSSLKSEDTATYYCARGDYYGTTYWYFDVWGTGTTVTVSS
VL: DIQMTQTTSSLSASLGDRVTISCRASQDISNYLNWYQQKPDGTVKLLIYYTSRLQSGVPSRFSGSGSGTDYSLTISNLEQEDIATYFCQQGKKLWSFGGGTKLEIKR
notes: Hybridoma-derived mouse variable domains

Each binder was assayed against T4, Human cKIT D1-3 (ECD subdomains 1-3, ligand binding domain) (human, UniProt P10721 26-311) (assay: ELISA on coated cKIT ECD subdomains).
T4 construct: also called cKIT subdomains 1-3
T4 sequence (P10721 other isoform, or with tags, fused parts or gaps limits assumed): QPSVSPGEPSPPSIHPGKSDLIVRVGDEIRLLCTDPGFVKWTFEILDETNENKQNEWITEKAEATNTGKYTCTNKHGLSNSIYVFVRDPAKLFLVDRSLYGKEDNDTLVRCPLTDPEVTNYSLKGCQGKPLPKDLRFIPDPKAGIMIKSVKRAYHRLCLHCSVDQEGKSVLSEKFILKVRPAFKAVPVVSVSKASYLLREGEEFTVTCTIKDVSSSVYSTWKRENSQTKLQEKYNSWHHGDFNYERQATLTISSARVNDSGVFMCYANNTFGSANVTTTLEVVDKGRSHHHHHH

| Binder | binding result |
| --- | --- |
| B1 | binds |

What follows are binders tested against T1, Mouse cKIT ECD, C-terminal 6x His (Sino …) (assay: SPR (Biacore 2000): antibody captured by anti-human Fc on CM5, cKIT ECD in solution, 25 C, 1:1 fit).
Procedure: (§1) Affinity of the antibodies to cKIT species orthologues and also to cKIT was determined using SPR technology using a Biacore® 2000 instrument (GE Healthcare, Pittsburgh, Pa.) and with CM5 sensor chips.
(§2) Briefly, HBS-P (0.01 M HEPES, pH 7.4, 0.15 M NaCl, 0.005% Surfactant P20) supplemented with 2% Odyssey® blocking buffer (Li-Cor Biosciences, Lincoln, Nebr.) was used as the running buffer for all the experiments. The immobilization level and analyte interactions were measured by response unit (RU).
(§3) For kinetic measurements, the experiments were performed in which the antibodies were captured to the sensor chip surface via the immobilized anti-human Fc antibody and the ability of the cKIT proteins to bind in free solution was determined. […] 0.1-1 μg/ml of test antibodies were then injected at 10 μl/min for 1 minute. […] Subsequently, 3.125-50 nM of cKIT receptor extracellular domains (ECD) were diluted in a 2-fold series and injected at a flow rate of 40 μl/min for 3 min over both reference and test flow cells. Table of tested ECDs is listed below (Table 6). Dissociation of the binding was followed for 10 min. After each injection cycle, the chip surface was regenerated with 3 M MgCl₂ at 10 μl/min for 30 seconds.

| Binder | Kd |
| --- | --- |
| B2 | 2.5 nM |

Target: T2, Cynomolgus monkey cKIT D1-5 (cyno cKIT …)
Assay: as above
Procedure: as §1, §2, §3

| Binder | Kd |
| --- | --- |
| B3 | 0.56 nM |
| B4 | 1.34 nM |
| B5 | 1.39 nM |
| B6 | 1.15 nM |
| B7 | 6.14 nM |
| B2 | 4.8 nM |

These binders were tested against T5, Human cKIT D1-5 (human cKIT ECD, C-terminal 6x His) (human, UniProt P10721 26-524) in the same assay as above.
T5 construct: also called human cKIT-His
Procedure: as §1, §2, §3

T5 sequence (P10721 other isoform, or with tags, fused parts or gaps limits assumed): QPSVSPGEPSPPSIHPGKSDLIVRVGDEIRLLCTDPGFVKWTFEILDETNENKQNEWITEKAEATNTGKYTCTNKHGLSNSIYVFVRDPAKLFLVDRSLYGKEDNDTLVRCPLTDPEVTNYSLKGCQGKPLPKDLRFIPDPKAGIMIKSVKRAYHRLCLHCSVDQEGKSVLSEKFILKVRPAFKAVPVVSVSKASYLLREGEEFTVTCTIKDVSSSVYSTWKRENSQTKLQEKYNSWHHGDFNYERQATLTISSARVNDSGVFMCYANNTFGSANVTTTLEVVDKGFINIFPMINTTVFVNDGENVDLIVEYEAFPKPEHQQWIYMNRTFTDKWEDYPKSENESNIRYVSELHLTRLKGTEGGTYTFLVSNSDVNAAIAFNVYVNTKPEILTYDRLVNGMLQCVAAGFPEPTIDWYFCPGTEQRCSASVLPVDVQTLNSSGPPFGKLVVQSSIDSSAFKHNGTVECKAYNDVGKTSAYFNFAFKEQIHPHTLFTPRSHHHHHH

| Binder | Kd |
| --- | --- |
| B4 | 1.44 nM |
| B8 | 1.34 nM |
| B5 | 1.13 nM |
| B6 | 1.31 nM |
| B7 | 8.4 nM |
| B2 | 9.1 nM |
| B9 | 20 nM |

These binders were tested against T1, Mouse cKIT ECD, C-terminal 6x His (Sino …) (assay: SPR (Biacore 2000): antibody captured by anti-human Fc, cKIT ECD in solution).
Procedure: as §1, §2, §3

| Binder | binding result |
| --- | --- |
| B3 | no binding (tested: 3.125-50 nM ECD injected) |
| B4 | no binding (tested: 3.125-50 nM ECD injected) |
| B8 | no binding (tested: 3.125-50 nM ECD injected) |
| B5 | no binding (tested: 3.125-50 nM ECD injected) |
| B6 | no binding (tested: 3.125-50 nM ECD injected) |
| B1 | no binding (tested: 3.125-50 nM ECD injected) |
| B7 | no binding (tested: 3.125-50 nM ECD injected) |
| B9 | no binding (tested: 3.125-50 nM ECD injected) |

Target: T3, Rat cKIT D1-5, C-terminal mFc
Assay: as above
Procedure: as §1, §2, §3

| Binder | binding result |
| --- | --- |
| B3 | no binding (tested: 3.125-50 nM ECD injected) |
| B4 | no binding (tested: 3.125-50 nM ECD injected) |
| B8 | no binding (tested: 3.125-50 nM ECD injected) |
| B5 | no binding (tested: 3.125-50 nM ECD injected) |
| B6 | no binding (tested: 3.125-50 nM ECD injected) |
| B1 | no binding (tested: 3.125-50 nM ECD injected) |
| B7 | no binding (tested: 3.125-50 nM ECD injected) |
| B2 | no binding (tested: 3.125-50 nM ECD injected) |
| B9 | no binding (tested: 3.125-50 nM ECD injected) |
